Measurements taken from the DeepSol protein solubility set.

Experiment: soluble on expression in E. coli; label from the status in PepcDB or PDB records

Row | Sequence | soluble on expression in E. coli
1 | MSLTEAPRVRLVGAEIFERPVEFRFPFRFGAARVTNAPQAFVRVRVEDASGRSTIGRSAEMMMPKWFDKNPSLSPEDNVGQLRASLRLAAEGLKSLQAETAFGLHVAAETEHHQAAATHGLPPLVASYGLALLDRAILDAVCRMMGACAAEAVRNNLLGVSGVAAPDLAGFDLTRFLSRLNVSSRLAVRHTIGLADVLTVADLGAMQRPADGLPQTLEDVIAAYGHRYFKIKVSGRPAEDIERLVAIAAILDDRVGDYRATLDGNEQFENIDLVCDLLDRIEEEPRLKRLRASMLFFEQPIARAEALSKPVVAAAQRMPLEIDESDGDMGAFLRARELGYAGISSKSCKGFYRALINRARVEKWNAEAGSSHYFMSAEDLTTQAGLALQQDLVLASLVGAGHVERNGHHYVDGMAGAPEGEQLAYLSHHGDLYEGAAGQTRLAIQAGEITFATALRSVGLGSSVDPDWAAMRPVSEGHHHHHH | not soluble
2 | MAQNPNSFTDSVFGMIRNLLVSIRAGLFELTIKQPVTQNSLQRYQEEHREEKQQYLRQAILDLAEDSEEEDDGQPLDKETLSKMIAELTIERNNLRRSFNIVNEQRTGSKDRQHMEEEIRIQNWTKEDREELESGLAVMRQTIQESWKDAADCEQEKRSKNNQ | not soluble
3 | MKTVALIQARLGSSRLPCKMMLSLHGLPVIDWVVRRVRRATLVDEVVVATSTQPENDILEHHLSRQGVAVFRGPEDDVLERFRLAGAAYGAEQVVRVCADNPLIWGGAIDDLIRFWRAEGCDYAYNHIPRGNLYPDGLGAETLSFALLEEVAREATLPEHREHCLSFIWAHPERYTIRTFDPADPALHRPDLKLDMDTPADYRYLALMDIHPDITPEELVAMLPRTALEHHHHHH | soluble
4 | SINVYLSLFSQGAESITTYTFNTHKAQHTFCKRCGVQSFYTPRSNPGGFGIAPHCLDEGTVRSVVTEEFNGSDWERAMKEHKTIKNMSKE | soluble
5 | MGSDKIHHHHHHMFEHRFKDLHHTYRAIREVESEHHNIANIIKYVHKNNRVRQPSVGSHIRLRKKWEVEKSTLHARLSWDLERMQVWQLEHLSKLVDFAYNYVPFYHALYHEAGFRTGDIVTWSDFEKLPIVDKKMLVDNRSALCASIGFAPDNHHVARTSGSSGINFTIVQDDTSVDTRVVLNLRQTEMMVGHALSPDDWRYGIYLASERFTSLAGGYPVITVGQDCPAVDVFEHIQKIKPKILYAFPSYLKRLQVCAGDLTEWGVECICTNSEPSTQEERQVFARHFGVPVLDEYSSEEFSLIATECRYGRYHIVEDNLKAEVCNIDPEGWGTLVGTSFANTYMPFIRYSQGDIVKLDARQILCECGTHFRYLDTFHGRADQFLESKNNGKIPPDKLMGLYDSTLILETSGVKEFQIVQTHLDKIEIRIVLMDKEGAYNYALMSNFVSGIKQLFSGDPLTVSVHVLESIPAAKSYKRRLIVNMINS | not soluble
6 | MGSDKIHHHHHHMKAVVIGGGVFGSLIARELTKYDLEVTLIEKNLDVGWGVTKANSAVVHAGYDDPPESVRAQFCASGNAMYEDLSKELDFDFKRIGSFVVAFNDEELKELERLLKQGEENGVPGLTILERDEVLSMEPNLNPEVKYALYAPTAGITEPWMVAIAAVENAVQNGLKLVLGESVVGFEKVNGRVRKVHTSRGEYEADIVINCAGLHADEIAKLAGAEYVPLHPRKGEYILLDKKLQGLVKRVIFPTPTKISKGILVLPTVDGGILLGPTAEDLPEEMKDRPITTREGLEKVREFTRRLVPSLDFSLVVKTFSGLRPESPQKDFFIKVSETVKNFVNVMATRSPGLTAAPAVAKYVVEELIQEKMRIPLEKKKDFKPERKRIVHYSELPLEEWRREIERDPRAGRLVCFCNEVTEKEIVEAIRRGARTLNGVKFRTRAMFGRCQGGFCMARILKILERELGVDMSEIKMKSENSWVVNGKVRE | not soluble
7 | MSLELPSFIFQAQENLVERPWGGEWIALLKGFRQSGIGESWEFSAHTSRPSTVLVKGQQLSMIELFSKHRDELLGRAAEKFSKFPILVRLIDAASPTQVHVHPSDKAAESLGEAEGGVESAWLVFNKGKAYAGFKEDVKIEELEEKLKEEDFDFKTLLNTFETTPYDTFVIRPGIPHAGEGLRVLEVSSNSTLAYFFNENDWEKVKKVLNTKKVEEFEVKGKKGMAETENFGLEVVDVTGTAEIKTGGVMNILYAAEGYFILRGKETADLHRGYSCLVPASTDSFTVESERGKIVRIYLKVEGGSHHHHHH | soluble
8 | MNNNDLVAKLWKLCDNLRDGGVSYQNYVNELASLLFLKMCKETGQEADYLPEGYRWDDLKSRIGQDQMQFYRNLLVQLGSDEKKLVQAVFHNVSTTIEQPKQLTELVSYMDALDWYNGNHGKSRDDFGDMYEGLLQKNANETKSGAGQYFTPRPLIKTIIHLLKPQPREVVQDPAAGTAGFLIEADRYVKSQTNDLDDLDGDTQDFQIHRAFIGLELVPGTRRLALMNCLLHDIEGNLDHGGAIRLGNTLGSDGENLPKAHIVATNPPFGSAAGTNITRTFVHPTSNKQLCFMQHIIETLHPGGRAAVVVPDNVLFEGGKGTDIRRDLMDKCHLHTILRLPTGIFYAQGVKTNVLFFTKGTVTNPHQDKNCTDDVWVYDLRTNMPSFGKRTPFTEQHLQPFETVYGEDPHGLSPREEGEWSFNAEESEVADSEENKNTDQHQATSRWRKFSREWIRSAKSDSLDISWLKDKDSIDADSLPEPDVLAAEAMGELVQALGELDALMRELGAGDEADAQRQLLNEAFGEVKA | not soluble
9 | MGSSHHHHHHGKTIFVIVPTNEEQVAFLEALAKQDELNFDWQNPPTEPGQPVVILIPSDMVEWFLEMLKAKGIPFTVYVEEGGSENLYFQGGGGGGLQLKSHQRLAEKPRRDAFVPRAYTVEELAQFDGKKKPQVFVGVKGIIYNVSLEWYGPEGPYSAFAGCDSSRQLGKVIVGRDEINADWTTLAPEHLKTLHEWEERFHSKYPAVGWITDPNKNFVKRAASLSP | not soluble
10 | MSLAPLAPLRAHAGRRLTAGLDDATIERLATDHPTLRQAIEAAGSEYALVQAEVADLLDLDEDAQISAVQDGFINFYADDAVTPYVALAARGPWVITLKGAVLYDAGGYGMLGFGHTPEAVLDAMARPQVMANVMTPSLAQRKLDRALRAEIGHTRGGCPFARFMCLNSGSEAVGLAARIVDTNAKLHTDPGARHAGATIKRLVVKGSFHGRTDRPGLYSDSSRKTYSKYLASYRDEDSVIAIAPYDIAALQRAFDEAARNHWFIEAVFLEPVMGEGDPGRALPAEFYAAARTLTRNHGSLLLVDSIQAGLRAHGVLSVVDYPGFEQLDPPDLETYSKALNAAQYPLSVLAVTEQAAQVYRKGTYGNTMTTNPRALDVACATLALFTPQIRDNIRLRGAQALRKLEALQAELGGLITKVQGTGLLFSCELAPQYKCYGAGSTEEWLRHHGVNVIHGGENSLRFTPHFGMDEAELDLLVGLIAKALKEGPRQAQAEAEGHHHHHH | soluble
11 | MIEKKIHYVWFGNAKSEKVLKCIESWKKNLPDYEIIEWNEKNFNIEEELKSNKFFRECYNRKLWAFVSDYVRVKVLYNYGGIYLDTDMEIIKDITPLLDADMFLGYENEDTMSFGIVGVIPKHKVFKKMYEFYQNEIWKSPLHIVTSILTEILEKEYHGKYRENNINIYPREYFYPFNHDEEFTKDCITGNTYAIHWWGKSWKKNPKVYFLKYKHLPWWKKYPKHVAKLINYYFKNLFNFRKELEHHHHHH | soluble
12 | MAHHHHHHMPCNVSCSTSPNSVTGEPRFIMDFSMNKVAKYFRLLGYDTLCSRDVPQANLIPTACAEGRILVTCSRPLARSVQLHNQRVRTMRLGIAKAMTGAAHHVIAYDSDGESIYSEDSEEVDVELRCLFTQQWCSGEFKRAMIELIQQAGVTYDLNRVFRRCVTCNELLVTMEKEEVRGRVVAKIYEIYDEFTECPTCRKVFWGFDGVFAINYKSFRSLNLLRSLCICAGAPVEEERTRLNRLRCFRSFPRIAKVLIFSYLEDVDLANMTVVFPALRDLAEEVQASRQTGEPVRKMQLRKH | not soluble
13 | GSHMASMLPEETILDKLPKDFQERITSSKWKDRVEALEEFWDSVLSQTKKLKSTSQNYSNLLGIYGHIIQKDANIQAVALAAQSVELICDKLKTPGFSKDYVSLVFTPLLDRTKEKKPSVIEAIRKALLTICKYYDPLASSGRNEDMLKDILEHMKHKTPQIRMECTQLFNASMKEEKDGYSTLQRYLKDEVVPIVIQIVNDTQPAIRTIGFESFAILIKIFGMNTFVKTLEHLDNLKRKKIEETVKTL | soluble
